Test results taken from US20240052061A1 (PURINOMIA BIOTECH, published 2024).

T1: human ecto-nucleoside triphosphate diphosphohydrolase-3 (NTPDase3) (human, UniProt O75355 1-529)
T1 sequence (looked up): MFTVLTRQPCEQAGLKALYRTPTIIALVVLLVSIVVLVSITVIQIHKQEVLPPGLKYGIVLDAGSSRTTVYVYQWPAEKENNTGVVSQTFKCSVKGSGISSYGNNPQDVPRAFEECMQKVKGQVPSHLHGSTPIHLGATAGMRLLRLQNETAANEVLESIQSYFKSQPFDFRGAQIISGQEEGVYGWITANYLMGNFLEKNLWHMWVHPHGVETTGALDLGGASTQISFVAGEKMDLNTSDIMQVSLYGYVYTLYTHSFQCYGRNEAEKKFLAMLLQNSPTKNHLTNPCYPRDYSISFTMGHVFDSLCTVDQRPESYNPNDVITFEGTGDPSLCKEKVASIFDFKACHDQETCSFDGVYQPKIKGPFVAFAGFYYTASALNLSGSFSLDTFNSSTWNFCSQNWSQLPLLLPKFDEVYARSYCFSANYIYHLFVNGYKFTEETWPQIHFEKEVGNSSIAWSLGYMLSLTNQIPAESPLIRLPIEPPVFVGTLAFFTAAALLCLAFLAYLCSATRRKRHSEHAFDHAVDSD


Legend:
[1] = molecular target: T1, human ecto-nucleoside triphosphate …; assay: cell-based or functional assay
[2] = molecular target: T1, human ecto-nucleoside triphosphate …; assay: cell-based or functional assay; remark: listed apart in the source

| Binder | ADCC EC50 (µg/mL), NFAT luciferase reporter Jurkat/hCD16a-158V [1] | Enzyme Activity Inhibition Capacity: % of Maximal Inhibition [1] | ADCC fold increase in relation to parental clone at 1 µg/mL [1] | CDC % of Maximal Cytotoxicity [1] | CDC EC50 [1] | Enzyme Activity Inhibition Capacity: EC50 [1] | EC50 of hENTPD3 enzyme activity inhibition, CHO-hENTPD3 cells, antibody 30 minutes [2] | enzyme activity inhibition capacity, maximal inhibition [2] |
| --- | --- | --- | --- | --- | --- | --- | --- | --- |
| 38D12 Hu/Ra (antibody, V domains shown) VH: QSVEESGGRLVTPGTPLTLTCTVSGFSLSSYVINWVRQAPGKGLEWIGTISSSGSTYYASWAKGRFTISTTSSTTVDLKITSPTTEDTATYFCARGADGAFISDYFNIWGPGTLVTVSS VL: DIVMTQTPSSVSAAVGGTVTIKCQANENIDSWLAWYQQKPGQRPKLLIYYASTLASGVPSRFKGSGSGTEYTLTISDLECADGATYYCQSYDTISDYGVGFGGGTEVVVKG | 0.059 µg/mL | 9% | – | – | – | – | – | – |
| 38D5 hIgG1 (antibody, V domains shown) VH: EQQLLESGGGLVQPGGSLRLSCAASGIDFNNYGISWVRQAPGKGLEWIAYKYPGFGIRNYANSVKGRFTISSDNSKNTVYLQMNSLRAEDTAVYFCARGARYRHDDYGALNLWGPGTLVTVSS VL: DIQMTQSPSTLSASVGDRVTITCQASQSVTNLLAWYQQKPGKPPKLLIYGASNLESGVPSRFSGSGSGTEFTLTISSLQPDDFATYYCQSGYYSANTFGPGTKVDIK | 0.104 µg/mL | 43% | 1.2 fold | 4% | 0.694 µg/mL | 0.22 µg/mL | – | – |
| 38D5 hIgG4 (antibody, V domains shown) VH: EQQLLESGGGLVQPGGSLRLSCAASGIDFNNYGISWVRQAPGKGLEWIAYKYPGFGIRNYANSVKGRFTISSDNSKNTVYLQMNSLRAEDTAVYFCARGARYRHDDYGALNLWGPGTLVTVSS VL: DIQMTQSPSTLSASVGDRVTITCQASQSVTNLLAWYQQKPGKPPKLLIYGASNLESGVPSRFSGSGSGTEFTLTISSLQPDDFATYYCQSGYYSANTFGPGTKVDIK | – | 41% | – | – | – | – | – | – |
| 3E9 Hu/Ra (antibody, V domains shown) VH: QSLEESGGDLVKPGASLTLTCTASGFSFSSSDWICWVRQAPGKGLEWIACIYAGSIGGAYFASWVNGRFTISRASSTTVTLQMTSLTAADTATYFCARSSSNGRLKLDQFDLWGPGTLVTVSS VL: AYDMTQTPASVEVAVGGTVTINCQASQSIGGWLSWYRQKPGQPPSLLIYKASTLASGVSSRFSGTGSRTHFTLTINGVQCADAATYYCQQGSAADVANTFGGGTEVVVKG | 0.044 µg/mL | 6% | – | – | – | – | – | – |
| 38D5 Hu/Ra (antibody, V domains shown) VH: QELVESGGGLVQPGGSLKLSCKASGIDFNNYGISWVRQAPGKGLEWIAYKYPGFGIRNYANSVKGRFTISSDNAQNTVFLQMTSLAASDTATYFCARGARYRHDDYGALNLWGPGTLVTVSS VL: DIVMTQTPPSVSAAVGGTVTINCQASQSVTNLLAWYQQKPGQPPKLLIYGASNLESGVPSRFRGSGSGTEFTLTISGMKAEDAATYYCQSGYYSANTFGAGTKVGIKR | 0.104 µg/mL | 44% | – | 1% | 1.73 µg/mL | 0.31 µg/mL | 15.9 µg/mL | ~40% |
| 4F9 Hu/Ra (antibody, V domains shown) VH: QSVEESGGRLVTPGTPLTLTCTVSGFSLSSYAMGWVRQAPGKGLEFIGIITYNGNTYYASWAKGRFPISKTSSTTVDLKMTSPTTEDTATYFCARARYGGYSTNSYYLNIWGPGTLVTVSS VL: DVVMTQTPASVSAAVGGTVTINCQASENIYRILAWYQQKPGQRPKLLIYGASNLETGVPSRFKGSGSGTEYTLTISDLECDDAATYYCQGVLYNSNDSTFGGGTEVVVKG | 0.064 µg/mL | 12% | – | – | – | – | – | – |
| 8E1 Hu/Ra (antibody, V domains shown) VH: QSVEESGGRLVTPGTPLTLTCTVSGFSLSSYAMGWVRQAPGKGLEFIGIISYSGNTYYASWAKGRFPISKTSSTTVDLKMTSPTTEDTANYFCARARYGGYSTNSYYLNIWGPGTLVTVSS VL: DVVMTQTPASVEAAVGGTVTINCQASENIYRVLAWYQQKPGQRPKLLIYGASNLESGVPSRFKGSGSGTDYTLTISDLECDDAATYYCQGVVYNSDDSAFGGGTEVVVKG | 0.075 µg/mL | 5% | – | 13% | 0.239 µg/mL | – | – | – |
| 42D8 Hu/Ra (antibody, V domains shown) VH: QSVEESGGRLVTPGTPLTLTCTVSGFSLSSYAMGWVRQAPGKGLEFIGIITYNSNTYYANWAKGRFPISKTSSTTVDLKMTSPTTEDTATYFCARARYGGYSTNSYYLNIWGPGTLVTVSS VL: DVVMTQTPASVSAAVGGTVTINCQASENIYRILAWYQQKPGQPPKLLIYGASNLETGVPSRFKGSGSGTEYTLTISDLECDDAATYYCQGVLYNSNDSTFGGGTEVVVKG | 0.072 µg/mL | 12% | – | – | – | – | – | – |
| 16D4 Hu/Ra (antibody, V domains shown) VH: QSVEESGGRLVTPGTPLTLTCTVSGFSLSSYAMGWVRQAPGKGLEFIGIITYNGGTYYASWAKGRFPISKTSSTTVDLKMTSPTTEDTATYFCARARYGGYSTNSYYLNIWGPGTLVTVSS VL: DVVMTQTPASVSAAVGGTVTINCQASENIYRVLAWYQQKPGQRPKLLIYGASNLETGVPSRFKGSGSGTEYTLTISDLECDDAATYYCQGVLYDNNDSTFGGGTEVVVKG | 0.053 µg/mL | 9% | – | – | – | – | – | – |
| 37H1 Hu/Ra (antibody, V domains shown) VH: QSVEESGGRLVTPGTPLTLTCTVSGFSLSSYAVGWVRQAPGKGLEFIGIITYNGATYYASWAEGRFPISKTSSTTVDLKMTSPTTEDTATYFCARARYGGYSTNSYYLNIWGPGTLVTVSS VL: DVVMTQTPASVSAAVGGTVTINCQASENIYRILAWYQQKPGQRPKLLIYGASNLETGVPSRFKGSGSGTEYTLTISDLECDDAATYYCQGVLWNSNDSTFGGGTEVVVKG | 0.044 µg/mL | 9% | – | – | – | – | – | – |
| 44H5 Hu/Ra (antibody, V domains shown) VH: QEQLEESGGDLVKPEGSLTLTCTASGFDSSSTYYMCWVRQAPGKGLEWSGCIYTGGLTYYASWAKGRFTISKTSSTTVTLQMTSLTAADTATYFCASYIGSRFYMPGFSLWGPGTLVTVSS VL: AIVMTQTPSSKSVPVGDTVTINCQASESIYSNNRLAWFQQKPGQPPKLLIYLASTLASGVPSRFKGSGSGTQFTLTISDVVCDDAATYYCAGYKGSSTDGTAFGGGTEVVVKG | 0.045 µg/mL | 15% | – | – | – | – | – | – |
| PBI #30af4 hIgG1 (antibody, V domains shown) VH: QVQLQESGGGLIQPGGSLRLSCAASGFTSSSSDYAMSWVRQAPGKGLEWVSSISGSGVSTYYADSVKGRFTISRDNSKNTLYVQMTSLTAEDTAVYYCAKVVGYSVYDYYYHYALDVWGQGTTVTVSS VL: QPVLTQPPSASGTPGQRVTISCSGSSSNIGSNTVNWYQQLPGTAPKLLIYSDNQRPSGVPDRFSGSKSGTSASLTISGLKTEDEAGYYCQSDDTSNVVFGGGTKVTVL | 0.434 µg/mL | 91% | 2.8 fold | – | – | 0.82 µg/mL | – | ~100% |
| PBI #30af4 hIgG4 (antibody, V domains shown) VH: QVQLQESGGGLIQPGGSLRLSCAASGFTSSSSDYAMSWVRQAPGKGLEWVSSISGSGVSTYYADSVKGRFTISRDNSKNTLYVQMTSLTAEDTAVYYCAKVVGYSVYDYYYHYALDVWGQGTTVTVSS VL: QPVLTQPPSASGTPGQRVTISCSGSSSNIGSNTVNWYQQLPGTAPKLLIYSDNQRPSGVPDRFSGSKSGTSASLTISGLKTEDEAGYYCQSDDTSNVVFGGGTKVTVL | – | 95% | – | – | – | 1.33 µg/mL | – | ~100% |
